Assay results taken from patent publication US20050142135A1, “Agents and methods for modulating interactions between gonadotropin hormones and receptors” (University of Kentucky Research Foundation, priority 2003, published 2005).
Values belong to the substance of their own block, whether it stands above or below them.

Columns and labels:
[1] = target: LHR K^573A mutant (human) (UniProt P22888); test: 125I-hCG displacement / Scatchard; details: ligand
[2] = target: LHR P^575A mutant (human) (UniProt P22888); test: 125I-hCG displacement / Scatchard; details: ligand
LHR^S582A (human) [3] = target: LHR^S582A (human) (UniProt P22888); test: 125I-hCG displacement / Scatchard; details: ligand
[4] = target: LHR I^577A mutant (human) (UniProt P22888); test: 125I-hCG displacement / Scatchard; details: ligand
[5] = target: LHR N^581A mutant (human) (UniProt P22888); test: 125I-hCG displacement / Scatchard; details: ligand
LHR^K583A (human) [6] = target: LHR^K583A (human) (UniProt P22888); test: 125I-hCG displacement / Scatchard; details: ligand
[7] = target: LHR V^579A mutant (human) (UniProt P22888); test: 125I-hCG displacement / Scatchard; details: ligand
[8] = target: LHR L^576A mutant (human) (UniProt P22888); test: 125I-hCG displacement / Scatchard; details: ligand
[9] = target: LHR T^580A mutant (human) (UniProt P22888); test: 125I-hCG displacement / Scatchard; details: ligand
LHR^V574A (human) [10] = target: LHR^V574A (human) (UniProt P22888); test: 125I-hCG displacement / Scatchard; details: ligand
[11] = target: LHR T^578A mutant (human) (UniProt P22888); test: 125I-hCG displacement / Scatchard; details: ligand
human FSH (human) = human FSH (human) (UniProt P01215); test: photoaffinity labeling, SDS-PAGE autoradiograph
LHR^K583A (human) [12] = target: LHR^K583A (human) (UniProt P22888); test: 125I-hCG competition binding on HEK293 cells, Scatchard
LHR^S582A (human) [13] = target: LHR^S582A (human) (UniProt P22888); test: cell-based or functional assay
LHR^V574A (human) [14] = target: LHR^V574A (human) (UniProt P22888); test: cell-based or functional assay

Chain of LHR^V574A (human) (P22888 27-699, stated change not applied): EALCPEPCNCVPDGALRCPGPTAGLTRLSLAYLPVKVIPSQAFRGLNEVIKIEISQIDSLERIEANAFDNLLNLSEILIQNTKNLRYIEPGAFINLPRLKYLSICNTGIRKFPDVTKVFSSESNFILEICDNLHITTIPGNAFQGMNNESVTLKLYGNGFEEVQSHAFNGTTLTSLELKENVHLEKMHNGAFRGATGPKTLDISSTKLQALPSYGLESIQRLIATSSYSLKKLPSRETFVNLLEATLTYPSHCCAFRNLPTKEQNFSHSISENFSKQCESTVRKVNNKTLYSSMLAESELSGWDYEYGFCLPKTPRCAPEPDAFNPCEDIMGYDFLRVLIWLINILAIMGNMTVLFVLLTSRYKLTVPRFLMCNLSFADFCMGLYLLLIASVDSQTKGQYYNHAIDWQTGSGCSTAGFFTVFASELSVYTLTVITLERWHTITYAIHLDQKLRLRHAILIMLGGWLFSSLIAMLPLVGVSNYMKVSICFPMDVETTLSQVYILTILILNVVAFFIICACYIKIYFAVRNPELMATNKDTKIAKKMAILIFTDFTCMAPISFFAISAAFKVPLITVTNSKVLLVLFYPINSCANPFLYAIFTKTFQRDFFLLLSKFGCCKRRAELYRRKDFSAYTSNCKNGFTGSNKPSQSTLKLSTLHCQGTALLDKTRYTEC
Chain of LHR^S582A (human) (P22888 27-699, stated change not applied): as above
Chain of LHR^K583A (human) (P22888 27-699, stated change not applied): as above
Chain of LHR T^580A mutant (human) (P22888 other isoform, or with tags, fused parts or gaps mutant): as the sequence (P22888 27-699, stated change not applied) above, with T576A counted along it
Chain of LHR K^573A mutant (human) (P22888 27-699, change not shown): as the sequence (P22888 27-699, stated change not applied) above
Chain of LHR I^577A mutant (human) (P22888 27-699, change not shown): as the sequence (P22888 27-699, stated change not applied) above
Chain of LHR N^581A mutant (human) (P22888 27-699, stated change not applied): as above
Chain of LHR V^579A mutant (human) (P22888 27-699, change not shown): as the sequence (P22888 27-699, stated change not applied) above
Chain of LHR T^578A mutant (human) (P22888 27-699, change not shown): as the sequence (P22888 27-699, stated change not applied) above
Chain of LHR P^575A mutant (human) (P22888 27-699, stated change not applied): as above
Chain of LHR L^576A mutant (human) (P22888 27-699, change not shown): as the sequence (P22888 27-699, stated change not applied) above

- Kd [1]: 0.348 nM
- Kd [2]: 0.277 nM
- Kd (LHR^S582A (human) [3]): 0.942 nM
- Kd [4]: 0.746 nM
- Kd [5]: 0.35 nM
- Kd (LHR^K583A (human) [6]): 0.195 nM
- Kd [7]: 0.985 nM
- Kd [8]: 0.43 nM
- Kd [9]: 0.623 nM
- Kd (LHR^V574A (human) [10]): 0.24 nM
- Kd [11]: 0.299 nM
Substance: hCG (from UniProt P01215 25-116; P0DN86 21-165)

- percent of FSH labeled (human FSH (human)): > 50%
Substance: ^125I-FSHR^9-40F13Bpa (peptide)

- fold improvement of binding affinity over wild type (LHR^K583A (human) [12]): 2 fold
- IP1 (cpm) (LHR^S582A (human) [13]): 15100 cpm
- IP1 maximum level, mutant/wild type (LHR^S582A (human) [13]): 1.09
- IP2 (cpm) (LHR^S582A (human) [13]): 900 cpm
- IP2 maximum level, mutant/wild type (LHR^S582A (human) [13]): 1.29
- IP3 (cpm) (LHR^S582A (human) [13]): 386 cpm
- IP3 maximum level, mutant/wild type (LHR^S582A (human) [13]): 1.38
- IPt (cpm) (LHR^S582A (human) [13]): 16200 cpm
- IPt maximum level, mutant/wild type (LHR^S582A (human) [13]): 1.11
- IP1 (cpm) (LHR^V574A (human) [14]): 2110 cpm
- IP1 maximum level, mutant/wild type (LHR^V574A (human) [14]): 0.15
- IP2 (cpm) (LHR^V574A (human) [14]): 180 cpm
- IP2 maximum level, mutant/wild type (LHR^V574A (human) [14]): 0.25
- IP3 (cpm) (LHR^V574A (human) [14]): 80 cpm
- IP3 maximum level, mutant/wild type (LHR^V574A (human) [14]): 0.39
- IPt (cpm) (LHR^V574A (human) [14]): 2230 cpm
- IPt maximum level, mutant/wild type (LHR^V574A (human) [14]): 0.15
Substance: hCG (from UniProt P01215 25-116; P0DN86 21-165) (ligand)
